B1: HEEH_KT_rd6_3546 (parent)
chain: SEEDKEREHWERLNRDFELRVLDTTFIAHHAEEVIKLLRWLEK

Variants of: B1
Assay: folding stability dG (cDNA display proteolysis); higher = more stable
Details: PBS, room temperature

Folding stability dG [kcal/mol] of substitutions, site by site:
W10: M 1.05, N 1.15, P 0.979, Q 1.25, R 1.02, S 1.17, T 1.07, V 1.03, Y 1.09
E11: A 2.07, D 1.55, F 2.43, G 1.76, H 1.79, I 2.17, K 1.69, L 2.11, M 1.9, N 1.59, P 1.71, Q 1.73, R 2.11, S 2.16, T 1.91, V 1.52, W 2.37, Y 2.17
R12: A 1.32, C 1.6, D 1.65, E 1.17, F 1.76, G 1.16, H 1.15, I 1.41, K 1.29, L 1.55, M 1.64, N 1.35, P 1.08, Q 1.26, S 1.43, T 1.53, V 1.37, W 2.2, Y 1.66
L13: A 1.17, D 1.24, E 0.952, F 1.7, G 1.16, H 1.15, I 1.53, K 1.4, M 1.36, N 1.43, P 1.14, Q 0.972, R 1.88, S 1.26, T 1.52, V 1.39, W 1.75, Y 1.77
N14: A 1.84, C 2.44, D 1.1, E 1.2, F 2.4, G 1.55, H 1.58, I 2.2, K 1.72, L 2.39, M 2.22, P 1.8, Q 1.67, R 2.11, S 1.96, T 1.8, V 2.21, W 2.69, Y 2.2
R15: A 1.55, C 2.36, D 1.22, E 1.23, F 2.37, G 1.29, H 1.42, I 2.41, K 1.25, L 2.07, M 1.75, N 1.26, P 1.11, Q 1.08, S 1.25, T 1.4, V 2.08, W 2.45, Y 1.84
D16: A 1.81, E 1.43, F 1.96, G 1.47, H 1.93, I 1.98, K 1.38, L 2.02, M 1.73, N 1.59, P 1.94, Q 1.6, R 1.76, S 1.57, T 2.31, V 2.04, W 2.27, Y 2.13
F17: A 0.719, D 0.606, E 0.738, G 0.579, H 0.86, I 1.1, K 0.798, L 1.14, M 1.01, N 0.718, P 0.774, Q 0.444, R 0.912, S 0.873, T 0.782, V 0.83, W 1.55, Y 1.31
E18: A 1.79, D 1.42, F 2.66, G 1.36, H 1.79, I 2.34, K 1.62, L 2.33, M 2.15, N 1.5, P 1.52, Q 1.72, R 1.87, S 1.83, T 2.19, V 2.17, W 2.88, Y 2.4
L19: A 0.896, C 2.03, D 0.732, E 0.795, F 1.42, G 0.617, H 0.971, I 1.39, K 0.521, M 0.996, N 0.808
